In article PMC6659632, “Preferential phosphatidylinositol 5-phosphate binding contributes to a destabilization of the VHS domain structure of Tom1” (Scientific Reports, 2019) one finds Kd data, which are given here for one molecule.

In the experiment the target is T1, ubiquitin (human, UniProt P0CG48 1-76).
T1 construct: ubiquitin, human; the cut product (one ubiquitin unit) of the polyubiquitin precursor; Construct was a gift (Dr. Julie Forman-Kay); also called human ubiquitin
The experiment in a line: ITC; ubiquitin (5 mM) in the syringe, Tom1 VHS (50 uM) in the sample cell; 25 °C; 20 mM HEPES (pH 7.4), 150 mM KCl; one-site binding model; nonreducing conditions. As to conditions: both partners purified.

B1: Tom1 VHS domain (domain or fragment, human, UniProt O60784 20-152, looked up)
chain: ATDGSLQSEDWALNMEICDIINETEEGPKDALRAVKKRIVGNKNFHEVMLALTVLETCVKNCGHRFHVLVASQDFVESVLVRTILPKNNPPTIVHDKVLNLIQSWADAFRSSPDLTGVVTIYEDLRRKGLEFP
notes: Tom1 (target of Myb1), human, N-terminal VHS domain; measured average mass 15,708.01 Da, predicted 15.7 kDa; also called VHS domain of Tom1; target of Myb1 VHS domain; source: E. coli (Rosetta), GST fusion purified on glutathione beads, cleaved with thrombin, size-exclusion chromatography
The Kd is a measure of binding affinity in units of concentration. Molecule B1 yielded a Kd of 695 µM.
